Molecular target: neural cell adhesion molecule (NCAM) (mouse (endogenous in brain)) (UniProt P13595)
Assay: co-IP

UniProt P13595, sequence (P13595 20-1115): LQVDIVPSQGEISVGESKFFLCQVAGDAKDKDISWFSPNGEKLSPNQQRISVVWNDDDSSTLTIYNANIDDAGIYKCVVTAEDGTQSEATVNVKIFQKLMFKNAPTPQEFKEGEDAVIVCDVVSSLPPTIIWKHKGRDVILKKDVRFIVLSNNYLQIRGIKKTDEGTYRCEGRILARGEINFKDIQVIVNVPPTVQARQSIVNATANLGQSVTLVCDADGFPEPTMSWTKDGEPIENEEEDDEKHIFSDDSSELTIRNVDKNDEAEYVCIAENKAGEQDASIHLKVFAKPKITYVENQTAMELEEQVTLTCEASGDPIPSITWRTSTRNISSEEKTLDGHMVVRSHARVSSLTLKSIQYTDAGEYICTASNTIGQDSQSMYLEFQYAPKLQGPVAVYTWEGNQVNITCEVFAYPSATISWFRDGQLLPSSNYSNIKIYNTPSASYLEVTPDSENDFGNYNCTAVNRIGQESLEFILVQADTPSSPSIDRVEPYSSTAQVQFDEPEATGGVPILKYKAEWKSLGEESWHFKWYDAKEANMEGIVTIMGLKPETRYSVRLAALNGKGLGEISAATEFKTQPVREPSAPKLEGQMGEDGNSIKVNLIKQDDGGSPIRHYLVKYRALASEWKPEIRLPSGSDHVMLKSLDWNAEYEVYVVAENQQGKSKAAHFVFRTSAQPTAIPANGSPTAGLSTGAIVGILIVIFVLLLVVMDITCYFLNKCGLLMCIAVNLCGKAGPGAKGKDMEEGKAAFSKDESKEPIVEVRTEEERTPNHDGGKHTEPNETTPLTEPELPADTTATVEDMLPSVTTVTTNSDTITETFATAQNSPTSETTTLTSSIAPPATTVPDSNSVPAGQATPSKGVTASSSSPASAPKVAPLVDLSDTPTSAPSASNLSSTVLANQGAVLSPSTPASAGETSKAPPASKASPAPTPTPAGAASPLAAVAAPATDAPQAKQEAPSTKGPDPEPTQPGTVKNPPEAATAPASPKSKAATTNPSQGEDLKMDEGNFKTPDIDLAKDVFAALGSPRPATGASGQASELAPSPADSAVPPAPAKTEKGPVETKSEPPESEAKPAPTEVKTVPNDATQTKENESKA

Substance: receptor-like protein tyrosine phosphatase RPTPα (natural protein)
- reduction of the co-immunoprecipitated complex with 2 mM EDTA against with Ca2+: 60%

— paper PMC2171675
